Assay results taken from patent US20140161790A1 (Xencor, published 2014).
Changes are numbered by the printed parent chain. Names may count otherwise.

B1: bevacizumab IgG1 Fc variant V259I/V308F/M428L (antibody)
heavy: EVQLVESGGGLVQPGGSLRLSCAASGYTFTNYGMNWVRQAPGKGLEWVGWINTYTGEPTYAADFKRRFTFSLDTSKSTAYLQMNSLRAEDTAVYYCAKYPHYYGSSHWYFDVWGQGTLVTVSSASTKGPSVFPLAPSSKSTSGGTAALGCLVKDYFPEPVTVSWNSGALTSGVHTFPAVLQSSGLYSLSSVVTVPSSSLGTQTYICNVNHKPSNTKVDKKVEPKSCDKTHTCPPCPAPELLGGPSVFLFPPKPKDTLMISRTPEITCVVVDVSHEDPEVKFNWYVDGVEVHNAKTKPREEQYNSTYRVVSVLTFLHQDWLNGKEYKCKVSNKALPAPIEKTISKAKGQPREPQVYTLPPSREEMTKNQVSLTCLVKGFYPSDIAVEWESNGQPENNYKTTPPVLDSDGSFFLYSKLTVDKSRWQQGNVFSCSVLHEALHNHYTQKSLSLSPGK
light: not shown
notes: also called IFL; copies: 2 + 2
B2: bevacizumab IgG1 Fc variant V259I/V308F (antibody)
heavy: not shown
light: not shown
notes: also called IF; copies: 2 + 2
B3: bevacizumab IgG1 Fc variant M252Y/S254T/T256E (antibody)
heavy: B1 heavy with M258Y, S260T, T262E, I265V, F314V, L434M
light: not shown
notes: also called YTE; copies: 2 + 2
B4: bevacizumab IgG1 Fc variant N434S (antibody)
heavy: not shown
light: not shown
notes: copies: 2 + 2
B5: bevacizumab IgG1 Fc variant M428L/N434S (antibody)
heavy: not shown
light: not shown
notes: also called LS; LS bevacizumab variant; copies: 2 + 2

Each binder was assayed against T1, human FcRn (heterodimer of alpha chain and beta2-microglobulin) (human, UniProt P55899 24-297; P61769 21-119, limits assumed) (assay: SPR as above, pH 6.0; fold KD against native IgG1).
T1 construct: Co-expressed in HEK293T cells; also called hFcRn; human neonatal Fc receptor
T1 sequence (P55899 24-297 limits assumed, chain 1 of 2): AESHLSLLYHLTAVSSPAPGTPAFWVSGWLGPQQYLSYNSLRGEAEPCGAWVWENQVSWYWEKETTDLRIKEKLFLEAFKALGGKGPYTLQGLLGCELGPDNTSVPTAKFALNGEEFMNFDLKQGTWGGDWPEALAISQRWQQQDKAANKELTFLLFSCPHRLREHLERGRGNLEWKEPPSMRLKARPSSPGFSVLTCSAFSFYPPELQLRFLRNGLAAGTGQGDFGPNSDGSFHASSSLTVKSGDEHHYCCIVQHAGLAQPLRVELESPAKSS
T1 sequence (P61769 21-119 limits assumed, chain 2 of 2): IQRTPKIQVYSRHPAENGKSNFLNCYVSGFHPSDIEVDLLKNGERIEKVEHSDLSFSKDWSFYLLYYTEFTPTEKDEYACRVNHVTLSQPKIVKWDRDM

Binder	Fold KD [fold]
B1	19.8
B2	5.8
B3	7.24

What follows are binders tested against T1, human FcRn (heterodimer of alpha chain …) (assay: SPR, FcRn coupled directly to CM5 chip, antibody analyte at 200 nM bound at pH 6.0, dissociation at pH 7.4; avid format, relative values only).

Binder	koff [s⁻¹]
B4	0.29
B5	0.33
B1	0.13
B2	0.6
B3	0.32

The binders below were run against T1, human FcRn (heterodimer of alpha chain …) (assay: SPR (Biacore 3000), antibody captured on immobilized VEGF, human FcRn as analyte, pH 6.0, 1:1 Langmuir fit).

Binder	Kd [nM]	koff [s⁻¹]	kon [M⁻¹ s⁻¹]
B1	124	0.0238	192000
B2	424	0.0752	178000
B3	340	0.0549	162000
